Reference: the supplement of paper PMC7125110
± gives the standard error. Variants at the floor of the assay were thinned out.

B1: glmS ribozyme (parent)
chain: AUAAAAGCGCCAGAACUACAGAAAUGUAGUUGACGAGGAGGAGGUUUAUCGAAUUUUCGGCGGAUGCCUCCAAA

Experiments:
Conditions in all cases: with glucosamine-6-phosphate
[1] = variants of: B1; assay: self-cleavage kobs at 160 uM GlcN6P; higher = faster cleavage; RNA array
Outline: (§1)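 Glucosamine-6-phosphate in HEPES/KCl/Mg(OAc)2 buffer, at 40 μM to 10 mM, was flowed over barcoded ribozyme variants transcribed in situ by E. coli RNA polymerase on sequenced MiSeq chips. Tracking was through a hybridised Cy3 probe at 37 °C. kobs, kcat and KM came from exponential decay fits and weighted Michaelis–Menten fits of normalised per-tile medians.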

[2] = variants of: B1; assay: self-cleavage kobs at 640 uM GlcN6P; higher = faster cleavage; RNA array
Outline: as §1

[3] = variants of: B1; assay: self-cleavage kobs at 2500 uM GlcN6P; higher = faster cleavage; RNA array
Outline: as §1

[4] = variants of: B1; assay: self-cleavage kobs at 10000 uM GlcN6P; higher = faster cleavage; RNA array
Outline: as §1

Variant	self-cleavage kobs at 160 uM GlcN6P [1] [s⁻¹]	self-cleavage kobs at 640 uM GlcN6P [2] [s⁻¹]	self-cleavage kobs at 2500 uM GlcN6P [3] [s⁻¹]	self-cleavage kobs at 10000 uM GlcN6P [4] [s⁻¹]
G35A U54G	< 1e-05	< 1e-05	< 1e-05	–
A42C U54C A64G C68A	< 1e-05	< 1e-05	< 1e-05	< 1e-05
G43U G62U C67U	< 1e-05	< 1e-05	–	–
G13A G35C C71U	< 1e-05	< 1e-05	–	–
A39U A53G C71A	0.000185 ± 3.5e-05	–	0.00139 ± 0.00042	0.00323 ± 0.00089
A36G G44A U55C U65G	< 1e-05	< 1e-05	< 1e-05	–
C8G G62C	< 1e-05	–	–	3.7e-05 ± 8.1e-06
U30C U55A	3.75e-05 ± 1.3e-05	9.3e-05 ± 1.6e-05	–	–
G38C G44A	< 1e-05	< 1e-05	–	< 1e-05
C10A C70A	6.28e-05 ± 1.3e-05	0.000194 ± 3.9e-05	6.82e-05 ± 1.9e-05	–
G38A G41C	< 1e-05	< 1e-05	< 1e-05	< 1e-05
A36U U54G	< 1e-05	–	–	–
A36U U56C	< 1e-05	< 1e-05	–	< 1e-05
G7U A12C G41A	< 1e-05	–	< 1e-05	–
G7U A15U G51U C61U C67G	< 1e-05	< 1e-05	–	–
C11U A14G C70U	0.00076 ± 0.00021	0.000656 ± 0.00014	0.00193 ± 0.0006	–
C11G A12U G13U C58U C68G	7.71e-05 ± 2.9e-05	0.000363 ± 0.00016	–	–
C10G G32A A33G C61A G63A	0.00144 ± 0.00069	–	–	–
C11U A33C A53U	< 1e-05	< 1e-05	–	–
G13C U45C U46C C68A C70G	< 1e-05	–	< 1e-05	–
G38U G60U	< 1e-05	< 1e-05	–	–
G43C C61A	< 1e-05	< 1e-05	< 1e-05	< 1e-05
U47G C50U G63C	< 1e-05	< 1e-05	–	–
G9U A12G G29A U56A	< 1e-05	< 1e-05	< 1e-05	–
A39U U47G A52U G60U G63U	< 1e-05	–	–	–
G37C U46A C68A	< 1e-05	–	–	–

Variant	self-cleavage kobs at 160 uM GlcN6P [1] [s⁻¹]	self-cleavage kobs at 640 uM GlcN6P [2] [s⁻¹]	self-cleavage kobs at 2500 uM GlcN6P [3] [s⁻¹]	self-cleavage kobs at 10000 uM GlcN6P [4] [s⁻¹]
G37C U47A	< 1e-05	–	–	4.38e-05 ± 1.1e-05
A39C U69A	< 1e-05	< 1e-05	–	–
G7U G13U	< 1e-05	–	< 1e-05	< 1e-05
C8U C10A G62A	< 1e-05	< 1e-05	–	–
C11A G38U G40U	< 1e-05	–	–	–
A6G G32U C50G U57G C61A G66U	0.000258 ± 4.1e-05	–	0.000553 ± 9.8e-05	9.54e-05 ± 1.9e-05
C8G C16U G35U C50G C70U	0.000117 ± 2.9e-05	0.000187 ± 5e-05	8.04e-05 ± 1.8e-05	–
A53G G63U	< 1e-05	< 1e-05	< 1e-05	–
C11A A12U	7.68e-05 ± 1.8e-05	0.000339 ± 6e-05	0.000539 ± 7.7e-05	0.00156 ± 0.00028
G7U C16G U30G G59A U69G	< 1e-05	–	–	–
G29U A42U A48U G62A	< 1e-05	–	< 1e-05	–
G7A G62C C67G	< 1e-05	< 1e-05	< 1e-05	–
C34A U54A	< 1e-05	–	< 1e-05	–
G9U A12G	< 1e-05	< 1e-05	< 1e-05	< 1e-05
A12G A36C G66C C68G	< 1e-05	–	–	–
C10A A39U U69G	< 1e-05	< 1e-05	< 1e-05	–
A14U G35U A39G C50U	< 1e-05	–	–	–
G29A U31G C50U C68A	5.27e-05 ± 2.2e-05	7.43e-05 ± 2.9e-05	8.2e-05 ± 3.2e-05	–
G7A U31C G60U	< 1e-05	–	< 1e-05	–
G44U C50U C71A	< 1e-05	< 1e-05	–	–
U46G A64U	< 1e-05	–	–	–
G9U C16U U57G C68U	< 1e-05	< 1e-05	–	–
G51U U56C C70G	< 1e-05	–	–	< 1e-05
A33C A42U U46C U54G	< 1e-05	–	< 1e-05	–
A36C A39U U57C	< 1e-05	–	–	–
A15G A33U G40U C67G	< 1e-05	–	< 1e-05	–

Variant	self-cleavage kobs at 160 uM GlcN6P [1] [s⁻¹]	self-cleavage kobs at 640 uM GlcN6P [2] [s⁻¹]	self-cleavage kobs at 2500 uM GlcN6P [3] [s⁻¹]	self-cleavage kobs at 10000 uM GlcN6P [4] [s⁻¹]
A33G G41U C50U C71U	< 1e-05	< 1e-05	–	–
C50G A53U C68G	0.000236 ± 6.7e-05	0.000668 ± 0.00018	–	–
U30A G59U C61U	< 1e-05	< 1e-05	–	–
A39G G62U	< 1e-05	< 1e-05	< 1e-05	–
C11U A15G C68U	4.79e-05 ± 2.4e-05	9.88e-05 ± 2.1e-05	0.000318 ± 8.7e-05	–
A33G G40C G63U	< 1e-05	< 1e-05	< 1e-05	–
G35U A36G A42G U55C	< 1e-05	–	< 1e-05	–
C10U C34G	< 1e-05	< 1e-05	< 1e-05	< 1e-05
A42C A64G C68U	< 1e-05	< 1e-05	< 1e-05	–
A12U C34U	< 1e-05	< 1e-05	–	< 1e-05
C8A C61U A64C C67U	< 1e-05	< 1e-05	< 1e-05	–
C11U A14C A39G U69A	< 1e-05	–	–	–
C10G U57C	< 1e-05	< 1e-05	< 1e-05	< 1e-05
C16A C50G U55C G63C C70G	0.000129 ± 4.7e-05	0.00119 ± 0.00038	–	–
A39C G43C C67U	< 1e-05	–	< 1e-05	–
G9A A52U C58U C70G	< 1e-05	< 1e-05	–	–
G7C C61A	< 1e-05	< 1e-05	–	–
C11U G44U G60A C61G	< 1e-05	< 1e-05	< 1e-05	< 1e-05
G37U A42C C50U C68G	< 1e-05	< 1e-05	< 1e-05	–
U55G G63C	< 1e-05	–	< 1e-05	–
C34G A53G C68G	0.000101 ± 2.4e-05	0.000115 ± 2.5e-05	8.44e-05 ± 3.6e-05	–
G7U A12G G32U	< 1e-05	–	–	–
A14U U65C U69C	< 1e-05	–	–	–
G37A U49A C67G	< 1e-05	–	< 1e-05	–
G38U A42U U56G	< 1e-05	< 1e-05	–	< 1e-05
G41U C58U	< 1e-05	< 1e-05	–	–

Variant	self-cleavage kobs at 160 uM GlcN6P [1] [s⁻¹]	self-cleavage kobs at 640 uM GlcN6P [2] [s⁻¹]	self-cleavage kobs at 2500 uM GlcN6P [3] [s⁻¹]	self-cleavage kobs at 10000 uM GlcN6P [4] [s⁻¹]
A42C A64U	< 1e-05	< 1e-05	< 1e-05	< 1e-05
C16G A39G A48G C58G A64U	< 1e-05	< 1e-05	–	–
G9U A15U A39U U69C	< 1e-05	< 1e-05	–	–
C8A A15U A36C A52G	< 1e-05	–	–	–
A12U G44A U65G C67U	0.000241 ± 6.5e-05	0.000969 ± 0.00016	0.00188 ± 0.00037	–
C34U G37C	< 1e-05	–	–	< 1e-05
U31G A33C U46G A53G G59A G63A	< 1e-05	–	< 1e-05	–
C8U A42G G63A	< 1e-05	< 1e-05	< 1e-05	–
G7U G35A G59C	< 1e-05	–	< 1e-05	–
G35A G63C	< 1e-05	< 1e-05	< 1e-05	–
A33C G35A G51C	< 1e-05	< 1e-05	< 1e-05	–
A14U A39C A52C	< 1e-05	< 1e-05	–	–
C10U A36G U46C	< 1e-05	–	< 1e-05	< 1e-05
G29A G62A	< 1e-05	< 1e-05	< 1e-05	–
U17G	0.00191 ± 0.00076	0.00535 ± 0.0016	–	–
A12U G38C A53G U55C C67G	< 1e-05	< 1e-05	< 1e-05	–
A42U U49A	< 1e-05	< 1e-05	< 1e-05	< 1e-05
A15G C58G C68U	8.66e-05 ± 3.1e-05	6.1e-05 ± 1.7e-05	5.67e-05 ± 1.6e-05	3.61e-05 ± 1.6e-05
A6U C10G A52G U56G	< 1e-05	–	< 1e-05	–
G40U G44U C58G	< 1e-05	–	–	–
A42U A52G C68G	< 1e-05	–	< 1e-05	–
A15C G38C C70G	< 1e-05	–	–	–
G13C G43C C70A	< 1e-05	–	–	–
G38U G40C G41C	< 1e-05	< 1e-05	< 1e-05	–
C19A C34G A39C	< 1e-05	< 1e-05	< 1e-05	–
G32U G44U U47G A64C	< 1e-05	–	< 1e-05	–
